Reference: IntAct's records for PubMed 31515488

B1: U3 small nucleolar RNA-associated protein 14 homolog C (Homo sapiens), Q5TAP6 (parent)
chain: MNVNQVAENLALSHQEELVDLPKNYPLSENEDEGDSDGERKHQKLLEAIISLDGKNRRKLAERSEASLKVSEFSVSSEGSGEKLGLADLLEPVKTSSSLATVKKQLNRVKSKKVVELPLNKEKIEQIHREVAFSKTSQVLSKWDPIILKNQQAEQLVFPLGKEQPAIAPIEHALSGWKARTPLEQEIFNLLHKNKQPVTDPLLTPMEKASLQAMSLEEAKMHRAELQRARALQSYYEAKARKEKKIKSKKYHKVVKKGKAKKALKEFEQLQKVNPTVALEEMEKIENARMMERMSLKHQNSGKWAKSKAIMAKYDLEARQAMQEQLAKNKELTQKLQVASESEEEEGGTEVEELLVPHVANEVQMNVDGPNPWMFRSCTSDTKEAATQEDPEQVPELAAHEVSASEAEERPVAEEEILLREFEERQSLRKRSELNQDAEPASSQETKDSSSQEVLSELRALSQKLKEKHQSRKQKASSEGTVPQVQREEPAPEEAEPLLLQRSERVQTLEELEELGKEDCFQNKELPRPVLEGQQSERTPNNRPDAPKEKKEKEQLINLQNFLTTQSPSVRSLAVPTIIEELEDEEERDQRQMIKEAFAGDDVIRDFLKEKREAVEASKPKDVDLTLPGWGEWGGVGLKPSAKKRRQFLIKAPEGPPRKDKNLPNVIISEKRNIHAAAHQVQVLPYPFTHHRQFERTIQTPIGSTWNTQRAFQKLTTPKVVTKPGHIIKPIKAEDVGYQSSSRSDLPVIQRNPKRITTRHNKEEKL
B2: Inactive peptidyl-prolyl cis-trans isomerase FKBP6 (Homo sapiens), O75344 (parent)
chain: MGGSALNQGVLEGDDAPGQSLYERLSQRMLDISGDRGVLKDVIREGAGDLVAPDASVLVKYSGYLEHMDRPFDSNYFRKTPRLMKLGEDITLWGMELGLLSMRRGELARFLFKPNYAYGTLGCPPLIPPNTTVLFEIELLDFLDCAESDKFCALSAEQQDQFPLQKVLKVAATEREFGNYLFRQNRFYDAKVRYKRALLLLRRRSAPPEEQHLVEAAKLPVLLNLSFTYLKLDRPTIALCYGEQALIIDQKNAKALFRCGQACLLLTEYQKARDFLVRAQKEQPFNHDINNELKKLASCYRDYVDKEKEMWHRMFAPCGDGSTAGES
partner: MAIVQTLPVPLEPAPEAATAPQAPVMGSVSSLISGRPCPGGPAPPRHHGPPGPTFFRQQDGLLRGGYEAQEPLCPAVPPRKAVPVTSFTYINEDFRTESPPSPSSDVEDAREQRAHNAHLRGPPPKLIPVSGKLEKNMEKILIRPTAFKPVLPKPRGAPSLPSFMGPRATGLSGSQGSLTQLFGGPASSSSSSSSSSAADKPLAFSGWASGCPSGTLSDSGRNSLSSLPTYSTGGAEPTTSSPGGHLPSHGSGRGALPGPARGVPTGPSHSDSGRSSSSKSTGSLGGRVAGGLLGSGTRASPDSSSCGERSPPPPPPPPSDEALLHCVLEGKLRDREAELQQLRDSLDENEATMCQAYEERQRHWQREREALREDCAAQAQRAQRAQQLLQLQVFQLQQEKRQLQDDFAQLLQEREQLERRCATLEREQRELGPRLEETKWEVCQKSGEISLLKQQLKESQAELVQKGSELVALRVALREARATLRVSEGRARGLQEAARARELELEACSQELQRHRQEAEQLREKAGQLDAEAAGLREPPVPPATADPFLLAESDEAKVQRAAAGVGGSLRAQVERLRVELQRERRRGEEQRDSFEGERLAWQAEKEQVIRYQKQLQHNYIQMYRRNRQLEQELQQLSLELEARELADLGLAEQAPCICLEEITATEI
B3: Proto-oncogene serine/threonine-protein kinase mos (Homo sapiens), P00540 (parent)
chain: MPSPLALRPYLRSEFSPSVDARPCSSPSELPAKLLLGATLPRAPRLPRRLAWCSIDWEQVCLLQRLGAGGFGSVYKATYRGVPVAIKQVNKCTKNRLASRRSFWAELNVARLRHDNIVRVVAASTRTPAGSNSLGTIIMEFGGNVTLHQVIYGAAGHPEGDAGEPHCRTGGQLSLGKCLKYSLDVVNGLLFLHSQSIVHLDLKPANILISEQDVCKISDFGCSEKLEDLLCFQTPSYPLGGTYTHRAPELLKGEGVTPKADIYSFAITLWQMTTKQAPYSGERQHILYAVVAYDLRPSLSAAVFEDSLPGQRLGDVIQRCWRPSAAQRPSARLLLVDLTSLKAELG
partner: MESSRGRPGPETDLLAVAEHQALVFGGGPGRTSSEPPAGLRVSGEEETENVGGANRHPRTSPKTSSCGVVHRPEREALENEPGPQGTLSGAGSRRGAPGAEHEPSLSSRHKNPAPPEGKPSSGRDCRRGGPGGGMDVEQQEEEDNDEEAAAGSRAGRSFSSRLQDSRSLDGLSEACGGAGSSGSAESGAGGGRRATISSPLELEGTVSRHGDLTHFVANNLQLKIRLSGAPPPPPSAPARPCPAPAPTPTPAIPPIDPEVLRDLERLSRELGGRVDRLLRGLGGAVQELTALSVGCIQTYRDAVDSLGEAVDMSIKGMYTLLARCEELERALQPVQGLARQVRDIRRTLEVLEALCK
B4: Four and a half LIM domains protein 2 (Homo sapiens), Q14192 (parent)
chain: MTERFDCHHCNESLFGKKYILREESPYCVVCFETLFANTCEECGKPIGCDCKDLSYKDRHWHEACFHCSQCRNSLVDKPFAAKEDQLLCTDCYSNEYSSKCQECKKTIMPGTRKMEYKGSSWHETCFICHRCQQPIGTKSFIPKDNQNFCVPCYEKQHAMQCVQCKKPITTGGVTYREQPWHKECFVCTACRKQLSGQRFTARDDFAYCLNCFCDLYAKKCAGCTNPISGLGGTKYISFEERQWHNDCFNCKKCSLSLVGRGFLTERDDILCPDCGKDI
partner: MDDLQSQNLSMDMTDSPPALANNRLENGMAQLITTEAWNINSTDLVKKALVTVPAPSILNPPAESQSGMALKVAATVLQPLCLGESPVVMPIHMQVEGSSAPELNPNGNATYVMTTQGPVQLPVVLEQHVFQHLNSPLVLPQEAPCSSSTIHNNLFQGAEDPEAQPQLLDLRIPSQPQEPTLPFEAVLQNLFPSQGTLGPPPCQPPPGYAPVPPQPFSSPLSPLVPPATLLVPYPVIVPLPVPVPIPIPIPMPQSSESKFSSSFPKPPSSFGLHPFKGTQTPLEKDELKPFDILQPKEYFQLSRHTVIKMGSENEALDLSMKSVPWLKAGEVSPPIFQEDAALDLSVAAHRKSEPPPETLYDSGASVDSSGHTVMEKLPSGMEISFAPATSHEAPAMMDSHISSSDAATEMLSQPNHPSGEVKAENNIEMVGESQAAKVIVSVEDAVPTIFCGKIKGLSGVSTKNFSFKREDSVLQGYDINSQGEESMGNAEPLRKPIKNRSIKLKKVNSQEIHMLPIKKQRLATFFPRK

Variants of: B1
Conditions: with myome_human PDE4DIP

| effect of a mutation on the interaction | Variant |
| --- | --- |
| with no effect | V109D |
| with no effect | I170V |
| with no effect | K247E |

Variants of: B2
Conditions: with lzts2_human LZTS2, Q9BRK4

| effect of a mutation on the interaction | Variant |
| --- | --- |
| with no effect | R175Q |
| with no effect | H287N |

Variants of: B3
Conditions: with borc6_human BORCS6, Q96GS4

| effect of a mutation on the interaction | Variant |
| --- | --- |
| with no effect | A105S |
| disrupting interaction strength | A123T |

Variants of: B4
Conditions: with rai2_human RAI2, Q9Y5P3

| effect of a mutation on the interaction | Variant |
| --- | --- |
| with no effect | A37S |
